One may read the Kd as the constant that tells how readily two partners part at equilibrium.

Data on two molecules can be found in patent US11040083B2, “Polypeptides comprising vinculin binding sites for the treatment of proliferation and/or adhesion related diseases” (PARIS SCIENCES ET LETTRES—QUARTIER LATIN, priority 2015, dated 2021).

“And” between values parts separate entries of the source, which are not always exact repeats. Equal values may be shown once. Read-outs that look alike come from different tables or passages of the source.

Series [1] concerns the target T1, full-length vinculin (HV) (Homo sapiens, UniProt P18206).
T1 construct: with full-length vinculin (HV) in solid phase assays
T1 sequence (P18206 1-1066 isoform P18206-2): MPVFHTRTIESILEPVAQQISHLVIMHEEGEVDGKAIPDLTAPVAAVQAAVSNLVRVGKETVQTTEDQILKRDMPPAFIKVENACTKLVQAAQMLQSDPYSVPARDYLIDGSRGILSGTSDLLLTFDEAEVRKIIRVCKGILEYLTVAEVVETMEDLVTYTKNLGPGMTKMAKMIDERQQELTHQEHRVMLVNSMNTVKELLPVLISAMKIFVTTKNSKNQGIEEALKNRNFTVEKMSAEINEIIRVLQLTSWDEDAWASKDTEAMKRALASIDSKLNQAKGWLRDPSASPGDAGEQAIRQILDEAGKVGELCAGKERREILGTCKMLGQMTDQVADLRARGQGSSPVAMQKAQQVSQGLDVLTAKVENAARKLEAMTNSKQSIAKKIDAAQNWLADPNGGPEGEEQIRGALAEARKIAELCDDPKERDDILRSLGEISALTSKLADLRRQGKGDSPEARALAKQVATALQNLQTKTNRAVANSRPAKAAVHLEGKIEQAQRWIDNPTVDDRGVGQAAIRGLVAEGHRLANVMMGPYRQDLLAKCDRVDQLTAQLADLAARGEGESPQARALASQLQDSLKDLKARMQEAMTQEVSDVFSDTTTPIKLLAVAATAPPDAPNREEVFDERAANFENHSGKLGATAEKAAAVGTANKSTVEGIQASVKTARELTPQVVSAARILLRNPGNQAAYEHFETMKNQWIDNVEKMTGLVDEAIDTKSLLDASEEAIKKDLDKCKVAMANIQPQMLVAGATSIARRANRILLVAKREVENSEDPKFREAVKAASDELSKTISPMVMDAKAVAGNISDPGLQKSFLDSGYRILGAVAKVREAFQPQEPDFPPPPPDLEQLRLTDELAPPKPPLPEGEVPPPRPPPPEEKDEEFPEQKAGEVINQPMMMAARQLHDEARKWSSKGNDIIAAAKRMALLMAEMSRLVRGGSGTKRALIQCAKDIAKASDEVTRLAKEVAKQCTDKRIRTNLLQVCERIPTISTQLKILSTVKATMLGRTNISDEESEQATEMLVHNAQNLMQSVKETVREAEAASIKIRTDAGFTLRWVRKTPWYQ
In words: ELISA solid phase binding assay. The conditions noted are these: IpaA construct immobilized on the solid phase, HV as soluble ligand. On the procedure:
96-well Maxisorp (Nunc) ELISA plates were coated with 30 nM full-length vinculin, vinculin constructs or IpaA proteins in binding buffer (25 mM Tris pH 7.4, 100 mM NaCl and 1 mM β-Mercaptoethanol). The wells were blocked with PBS-BSA 2%, washed and incubated with half series dilutions of IpaA or vinculin proteins in binding buffer+0.2% BSA at room temperature for one hour. After incubation the plates were washed and incubated with an anti-IpaA (dilution: 1/2000) polyclonal primary antibody (Tran Van Nhieu et al., 1997. EMBO J. 16(10):2717-29) or anti-vinculin (dilution: 1/2000) m11.5 monoclonal primary antibody (ref. V4505, Sigma-Aldrich) in binding buffer+0.2% BSA for one hour at room temperature. Plates were washed and incubated with an HRP-coupled secondary anti-rabbit or anti mouse Ig antibodies (dilution: 1/32000, Jackson ImmunoResearch) for one hour.

The target of series [2] is T2, talin H1-H4 (Homo sapiens, UniProt Q9Y490). The series is described as follows: Isothermal titration calorimetry. Format: binding. The conditions noted are these: 25° C.; for ΔG free enthalpy / ΔH enthalpy / −TΔS entropic contribution / Kd: ITC; for Kd: read-out: KD (affinity constant). On the procedure:
Vinculin, IpaA proteins and peptides were extensively dialyzed in binding buffer (25 mM Tris pH 7.4, 100 mM NaCl and 1 mM β-Mercaptoethanol). The final concentration of all proteins/peptides was measured using a BCA test (Thermo Scientific). Talin-IpaA binding was measured by microcalorimetry using an ITC200 calorimeter (MicroCal) at 25° C. 200 μL of 20-100 μM of talin H1-H4 protein was added to the cell and binding in the presence of different concentrations of IpaA VBS1, VBS2 or VBS3 peptides was measured. In other experiments, 200 μL of a 16 μM equimolar mix of A483:HVD1 was incubated for one hour at room temperature prior to addition to the cell. Binding to talin H1-H4 (100 μM) was measured. Typically, 20-40 injections of 2 μL of ligand were made with intervals of 320 seconds between each addition, with a reference power of 12 μcal/sec. Data were analyzed using the MicroCal software provided by manufacturer.
A general note: ITC needs no label: the signal is the heat of the interaction.

Series [3] in a line: Size exclusion chromatography, hydrodynamic radius. Format: physicochemical. The conditions noted are these: for Radiusm (estimated hydrodynamic radius): SEC Superdex 75, 20 μM equimolar. On the procedure: The purified proteins HVD1, A483, A524 and Talin H1-H4 were used at an equimolar concentration of 20 μM and incubated at 4° C. for one hour in binding buffer. The protein mixtures (200 μL) were injected in a FPLC chromatography system (FPLC Pharmacia) at 16° C. in a Superdex 75 HR 10/30 column (GE Healthcare) previously equilibrated with 10 volumes of binding buffer. The SEC system was calibrated with a Low Molecular Weight Gel Filtration Kit (ref. 17-0442-01, GE Healthcare) and the hydrodynamic radius (Angstroms) of the reference proteins (BSA, OVA, ChyA and RibA) correlated with the elution volume (Ve) using an Euler exponential equation: Hydrodynamic radius (Ang)=210.46 e^−0.189 Ve (mL), with a correlation squared coefficient of R^2=0.9973. Fractions corresponding to elution volume 8-10 mLs were recovered, and analyzed by SDS-PAGE using 15% polyacrylamide gels.

Series [4] addresses T2, talin H1-H4. The series is described as follows: SEC-MALS. The conditions noted are these: 20 μM equimolar. The series is classed as binding. On the procedure:
The purified proteins IpaA 483-633 (A483), IpaA 524-633 (A524) and Talin H1-H4 (TlnH1-H4) were used at 20 μM equimolar concentrations and incubated at 4° C. for one hour in binding buffer (25 mM Tris-HCL pH 7.0, 100 mM NaCl and 1 mM β-Mercaptoethanol). The protein mixtures (200 μL) were analyzed by size-exclusion chromatography (SEC) on a Superdex 200 10/300 GL (GE Healthcare) using a Shimadzu Prominence HPLC. Multi-angle laser light scattering (MALS) was measured with a MiniDAWN TREOS (Wyatt Technology). Refractometry was monitored using an Optilab T-rEX (Wyatt Technology).

For another series, the system named is melanocytes. The series is described as follows: Matrigel invasion assay. Format: cell-based. The conditions noted are these: 24-hour incubation, three independent experiments. On the procedure:
Cells were transfected by GFP-A524, GFP-A483 or Mock-transfected (without DNA, as a control).
Cells were further trypsinized, collected, and deposited in a matrigel insert. Following a 24-hour incubation, the matrigel was remove, the membrane was fixed and processed for fluorescence straining of cell nuclei with DAPI. Cells that transmigrated across the matrigel were scored (FIG. 24B).

T2 sequence (Q9Y490 482-636): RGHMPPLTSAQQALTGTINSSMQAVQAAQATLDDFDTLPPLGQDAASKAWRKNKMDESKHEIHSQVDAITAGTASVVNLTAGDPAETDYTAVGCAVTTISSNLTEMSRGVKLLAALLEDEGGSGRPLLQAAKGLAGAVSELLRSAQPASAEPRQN

B1: A483: amino acids 483 to 633 of SEQ ID NO: 1 (IpaA), containing IpaA VBS1, VBS2 and VBS3 (protein, listed as Shigella flexneri)
chain: GDTYLTRETIFEASKKVTNSLSNLISLIGTKSGTQERELQEKSKDITKSTTEHRINNKLKVTDANIRNYVTETNADTIDKNHAIYEKAKEVSSALSKVLSKIDDTSAELLTDDISDLKNNNDITAENNNIYKAAKDVTTSLSKVLKNINKD
modifications: A483 / IpaA (483-633)
Take B1: in series [1], the “ligand concentration at which the saturation curve plateaus” value came out at 25 nM. Moreover, in the series with talin H1-H4 [2], the ΔG free enthalpy was -10.025 kcal/mol, the ΔH enthalpy is -6.229 kcal/mol, the “−TΔS entropic contribution” value was -3.796 kcal/mol and the Kd worked out at 24.9 nM. Also, the Kd in the series with talin H1-H4 [2] (listed as A483 (VBS3)) was 24.9 nM. In series [3], the “Radiusg (hydrodynamic radius of a globular protein with the same MW)” value is recorded as 17.99 Ang; the “Radiusm/Radiusg (RH/RG ratio)” value is 1.83 and 1.80; the “Radiusm (estimated hydrodynamic radius)” value is recorded as 32.86 Ang. In addition, in the series with talin H1-H4 [4], the “complex formation with talin H1-H4 in solution” value is listed as “compact globular complex corresponding to one talin H1-H4 dimer bound to one A483 molecule”. The “number of cells which migrated across a matrigel” value in the series on melanocytes came out at 120 cells.

B2: A524: IpaA 524-633, containing only IpaA VBS1 and VBS2 (protein, listed as Shigella flexneri)
chain: KSKDITKSTTEHRINNKLKVTDANIRNYVTETNADTIDKNHAIYEKAKEVSSALSKVLSKIDDTSAELLTDDISDLKNNNDITAENNNIYKAAKDVTTSLSKVLKNINKD
modifications: A524 / IpaA (524-633)
notes: IpaA 524-633, containing only IpaA VBS1 and VBS2
B2: the “ligand concentration at which the saturation curve plateaus” value in series [1] amounted to 25 nM. The “N (stoichiometry)” value with talin H1-H4 [2] (ITC non-linear fit) amounted to 1.5. In the series with talin H1-H4 [2], the ΔG free enthalpy is -7.448 kcal/mol, the ΔH enthalpy is -3.979 kcal/mol, the “−TΔS entropic contribution” value is -3.469 kcal/mol and the Kd came to 2030 nM. Also, in series [3], the “Radiusg (hydrodynamic radius of a globular protein with the same MW)” value worked out at 15.36 Ang, the “Radiusm/Radiusg (RH/RG ratio)” value is 1.88 and the “Radiusm (estimated hydrodynamic radius)” value is reported as 28.93 Ang. Further, the “complex formation with talin H1-H4 in solution” value in the series with talin H1-H4 [4] is reported as “absence of complex formation”. Also, in the series on melanocytes, the “number of cells which migrated across a matrigel” value is reported as 96 cells.
